Measurements from patent US20200261595A1 (Novo Nordisk, published 2020).

Columns and labels:
[1] = biological target: T1, insulin receptor A (UniProt P06213-2 28-1370, limits assumed); experiment: summary of Table 3; upper end tied by Table 3 to the compound of Example 5.8 (10.58)
[2] = biological target: T1, insulin receptor A; experiment: insulin receptor binding assay as in Vienberg et al. 2011; relative to human insulin on insulin receptor A (100%)
[3] = biological target: insulin receptor of isolated rat adipocytes (rat, UniProt P15127 27-1383); experiment: cell-based or functional assay
[4] = biological target: T1, insulin receptor A; experiment: summary of Table 3; lower end tied by Table 3 to the compound of Example 5.31 (0.47)

T1 sequence (P06213 other isoform, or with tags, fused parts or gaps limits assumed): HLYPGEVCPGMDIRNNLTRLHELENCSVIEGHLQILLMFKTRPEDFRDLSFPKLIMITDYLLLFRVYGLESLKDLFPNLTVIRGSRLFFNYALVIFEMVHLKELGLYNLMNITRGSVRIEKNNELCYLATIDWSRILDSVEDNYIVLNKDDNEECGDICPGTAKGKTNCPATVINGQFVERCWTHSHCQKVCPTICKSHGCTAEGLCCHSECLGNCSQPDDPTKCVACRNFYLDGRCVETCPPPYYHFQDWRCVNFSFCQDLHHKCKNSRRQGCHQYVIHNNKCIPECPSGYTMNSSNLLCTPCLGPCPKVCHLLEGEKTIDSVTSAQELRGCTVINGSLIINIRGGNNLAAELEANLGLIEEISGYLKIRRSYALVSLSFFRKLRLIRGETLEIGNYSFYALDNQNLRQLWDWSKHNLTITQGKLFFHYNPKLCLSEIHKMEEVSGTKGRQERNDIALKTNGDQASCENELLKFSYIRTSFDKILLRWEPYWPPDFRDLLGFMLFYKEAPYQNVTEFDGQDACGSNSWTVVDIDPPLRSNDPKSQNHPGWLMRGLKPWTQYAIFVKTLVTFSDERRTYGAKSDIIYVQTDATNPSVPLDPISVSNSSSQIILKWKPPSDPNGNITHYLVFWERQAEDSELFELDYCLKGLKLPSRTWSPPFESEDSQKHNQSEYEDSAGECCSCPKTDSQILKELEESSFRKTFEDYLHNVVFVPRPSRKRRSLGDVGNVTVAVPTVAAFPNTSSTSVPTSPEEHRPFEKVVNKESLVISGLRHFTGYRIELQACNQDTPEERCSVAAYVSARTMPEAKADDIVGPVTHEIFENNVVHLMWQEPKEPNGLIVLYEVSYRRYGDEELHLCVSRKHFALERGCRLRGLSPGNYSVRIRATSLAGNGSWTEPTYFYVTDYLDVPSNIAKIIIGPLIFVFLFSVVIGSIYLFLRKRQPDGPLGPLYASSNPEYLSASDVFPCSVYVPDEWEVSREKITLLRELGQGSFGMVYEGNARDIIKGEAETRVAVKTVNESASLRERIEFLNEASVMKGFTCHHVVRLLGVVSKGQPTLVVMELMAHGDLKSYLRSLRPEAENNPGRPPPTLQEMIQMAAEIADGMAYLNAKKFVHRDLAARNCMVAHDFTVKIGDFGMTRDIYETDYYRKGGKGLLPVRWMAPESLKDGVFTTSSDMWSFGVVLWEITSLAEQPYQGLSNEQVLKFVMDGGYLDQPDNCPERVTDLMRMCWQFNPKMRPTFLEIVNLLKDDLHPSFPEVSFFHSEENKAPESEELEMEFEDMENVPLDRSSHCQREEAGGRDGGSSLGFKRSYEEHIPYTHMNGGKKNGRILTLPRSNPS
Chain of insulin receptor of isolated rat adipocytes (P15127 27-1383): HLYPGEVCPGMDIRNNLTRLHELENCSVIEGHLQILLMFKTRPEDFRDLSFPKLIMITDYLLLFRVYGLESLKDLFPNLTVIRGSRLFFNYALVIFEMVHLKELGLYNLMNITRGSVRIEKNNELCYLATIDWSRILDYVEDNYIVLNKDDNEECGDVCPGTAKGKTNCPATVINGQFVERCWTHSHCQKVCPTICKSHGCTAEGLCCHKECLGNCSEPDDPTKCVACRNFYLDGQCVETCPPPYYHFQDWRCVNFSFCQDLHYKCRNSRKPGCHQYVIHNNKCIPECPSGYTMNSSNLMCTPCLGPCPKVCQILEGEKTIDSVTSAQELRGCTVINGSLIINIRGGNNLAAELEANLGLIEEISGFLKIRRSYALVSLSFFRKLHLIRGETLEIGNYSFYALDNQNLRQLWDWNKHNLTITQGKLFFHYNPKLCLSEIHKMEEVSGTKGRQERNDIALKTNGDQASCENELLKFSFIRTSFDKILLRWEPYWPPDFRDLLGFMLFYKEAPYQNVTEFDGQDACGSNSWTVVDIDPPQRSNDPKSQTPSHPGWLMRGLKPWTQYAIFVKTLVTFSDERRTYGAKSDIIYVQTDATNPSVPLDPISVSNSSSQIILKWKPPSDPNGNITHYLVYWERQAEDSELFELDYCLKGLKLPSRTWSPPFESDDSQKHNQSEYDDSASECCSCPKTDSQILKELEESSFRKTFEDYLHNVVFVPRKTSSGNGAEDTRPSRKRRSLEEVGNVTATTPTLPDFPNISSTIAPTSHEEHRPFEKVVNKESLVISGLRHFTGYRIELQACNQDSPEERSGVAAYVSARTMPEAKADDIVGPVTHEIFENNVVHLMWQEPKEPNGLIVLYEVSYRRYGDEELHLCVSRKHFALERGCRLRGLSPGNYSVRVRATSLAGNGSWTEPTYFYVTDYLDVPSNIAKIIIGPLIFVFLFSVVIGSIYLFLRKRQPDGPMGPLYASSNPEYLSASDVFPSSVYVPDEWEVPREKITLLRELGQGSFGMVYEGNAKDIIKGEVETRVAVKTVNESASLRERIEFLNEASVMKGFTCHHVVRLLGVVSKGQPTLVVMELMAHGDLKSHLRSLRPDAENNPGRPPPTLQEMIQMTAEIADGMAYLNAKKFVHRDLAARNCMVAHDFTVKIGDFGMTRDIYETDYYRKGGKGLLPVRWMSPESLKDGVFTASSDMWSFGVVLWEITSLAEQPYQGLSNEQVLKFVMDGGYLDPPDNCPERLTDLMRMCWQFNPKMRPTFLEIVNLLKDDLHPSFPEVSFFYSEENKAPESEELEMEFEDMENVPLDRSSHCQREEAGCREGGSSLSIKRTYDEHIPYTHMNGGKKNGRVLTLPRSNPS

Row | insulin receptor affinity relative to human insulin [1] | Insulin receptor affinity [IC50 relative to HI (%)] [2] | Lipogenesis in rat adipocytes [Potency (%)] Mean Value [3] | insulin receptor affinity relative to human insulin [4] | Binder
1 |  | 5.07% | 6.69 % of human insulin |  | (A14E, A21G, A22(GQEP)19, A98K^, A99P, B25H, B29R, desB30 human insulin)/(227A, 234A, 235K hIgG4-Fc(228-447)) … (other, Cys229 (EU numbering) sulphur bound to an acetyl arm of the linker; A98K N(eps) acylated by the trivalent linker 4-[bis[2-[(2-acetyl)amino]ethyl]amino]-4-oxo-butanoyl, Fc made in E. coli; also called Ex 5.1) chain 1: GIVEQCCTSICSLEQLENYCGGQEPGQEPGQEPGQEPGQEPGQEPGQEPGQEPGQEPGQEPGQEPGQEPGQEPGQEPGQEPGQEPGQEPGQEPGQEPKP chain 2: FVNQHLCGSHLVEALYLVCGERGFHYTPR chain 3: ASCPAPEAKGGPSVFLFPPKPKDTLMISRTPEVTCVVVDVSQEDPEVQFNWYVDGVEVHNAKTKPREEQFNSTYRVVSVLTVLHQDWLNGKEYKCKVSNKGLPSSIEKTISKAKGQPREPQVYTLPPSQEEMTKNQVSLTCLVKGFYPSDIAVEWESNGQPENNYKTTPPVLDSDGSFFLYSRLTVDKSRWQEGNVFSCSVMHEALHNHYTQKSLSLSLGK
2 |  | 0.47% | 0.6 % of human insulin | 0.5 to 10% | (A14E, A21G, A22(GQAP)18, A94G, A95Q, A96A, A97K^, A98P, B16E, B25H, B29R, desB30 human insulin)/(227A, 234A, 235K, 297E, 315Q, 384Q, des447 hIgG4-Fc(228-447)) … (other, Cys229 (EU numbering) sulphur bound to an acetyl arm of the linker; A97K N(eps) acylated by the trivalent linker 4-[bis[2-[(2-acetyl)amino]ethyl]amino]-4-oxo-butanoyl) chain 1: GIVEQCCTSICSLEQLENYCGGQAPGQAPGQAPGQAPGQAPGQAPGQAPGQAPGQAPGQAPGQAPGQAPGQAPGQAPGQAPGQAPGQAPGQAPGQAKP chain 2: FVNQHLCGSHLVEALELVCGERGFHYTPR chain 3: ASCPAPEAKGGPSVFLFPPKPKDTLMISRTPEVTCVVVDVSQEDPEVQFNWYVDGVEVHNAKTKPREEQFESTYRVVSVLTVLHQDWLQGKEYKCKVSNKGLPSSIEKTISKAKGQPREPQVYTLPPSQEEMTKNQVSLTCLVKGFYPSDIAVEWESQGQPENNYKTTPPVLDSDGSFFLYSRLTVDKSRWQEGNVFSCSVMHEALHNHYTQKSLSLSLG

The remaining lines, values behind:

Row | Binder | insulin receptor affinity relative to human insulin [1] | Insulin receptor affinity [IC50 relative to HI (%)] [2] | Lipogenesis in rat adipocytes [Potency (%)] Mean Value [3] | insulin receptor affinity relative to human insulin [4]
3 | A14E, A21G, A22(GQEP)12, A70K^, A71P, B25H, B29R, desB30 human insulin/(227A, 234A, 235K hIgG4-Fc(228-447)) … (other, Cys229 (EU numbering) sulphur bound to an acetyl arm of the linker; A70K N(eps) acylated by the trivalent linker 4-[bis[2-[(2-acetyl)amino]ethyl]amino]-4-oxo-butanoyl, also called Ex 5.8) chain 1: GIVEQCCTSICSLEQLENYCGGQEPGQEPGQEPGQEPGQEPGQEPGQEPGQEPGQEPGQEPGQEPGQEPKP chain 2: FVNQHLCGSHLVEALYLVCGERGFHYTPR chain 3: ASCPAPEAKGGPSVFLFPPKPKDTLMISRTPEVTCVVVDVSQEDPEVQFNWYVDGVEVHNAKTKPREEQFNSTYRVVSVLTVLHQDWLNGKEYKCKVSNKGLPSSIEKTISKAKGQPREPQVYTLPPSQEEMTKNQVSLTCLVKGFYPSDIAVEWESNGQPENNYKTTPPVLDSDGSFFLYSRLTVDKSRWQEGNVFSCSVMHEALHNHYTQKSLSLSLGK | 0.5 to 10% | 10.6% | 5.31 % of human insulin | 
4 | A14E, A21G, A22(GQEP)6, A46K^, A47P, B25H, B29R, desB30 human insulin/(227A, 234A, 235K hIgG4-Fc(228-447)) … (other, Cys229 (EU numbering) sulphur bound to an acetyl arm of the linker; A46K N(eps) acylated by the trivalent linker 4-[bis[2-[(2-acetyl)amino]ethyl]amino]-4-oxo-butanoyl, also called Ex 5.7) chain 1: GIVEQCCTSICSLEQLENYCGGQEPGQEPGQEPGQEPGQEPGQEPKP chain 2: FVNQHLCGSHLVEALYLVCGERGFHYTPR chain 3: ASCPAPEAKGGPSVFLFPPKPKDTLMISRTPEVTCVVVDVSQEDPEVQFNWYVDGVEVHNAKTKPREEQFNSTYRVVSVLTVLHQDWLNGKEYKCKVSNKGLPSSIEKTISKAKGQPREPQVYTLPPSQEEMTKNQVSLTCLVKGFYPSDIAVEWESNGQPENNYKTTPPVLDSDGSFFLYSRLTVDKSRWQEGNVFSCSVMHEALHNHYTQKSLSLSLGK |  | 2.43% | 1.88 % of human insulin | 
